According to article PMC6173196 (Journal of immunology (Baltimore, Md. : 1950), 2018):

molecular target: biotinylated mouse IL-2Rα (mIL-2Rα ectodomain with C-terminal biotin acceptor peptide) (mouse); assay: SPR; conditions: not given

Sequence of JES6–1 immunocytokine (IL-2 tethered to the N-terminus of the JES6–1 antibody light chain) (P04351 whole entry, looked up): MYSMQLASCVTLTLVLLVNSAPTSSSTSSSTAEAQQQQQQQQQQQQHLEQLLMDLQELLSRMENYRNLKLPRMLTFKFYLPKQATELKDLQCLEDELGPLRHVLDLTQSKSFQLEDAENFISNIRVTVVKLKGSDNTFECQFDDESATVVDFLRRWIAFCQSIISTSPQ
Sequence of JES6–1 immunocytokine mutant H100A (VL) (P04351 whole entry, looked up, stated change not applied): as the sequence (P04351 whole entry, looked up) above
Sequence of JES6–1 immunocytokine double mutant S34A+Y41A (VL) (P04351 whole entry, looked up, stated change not applied): as the sequence (P04351 whole entry, looked up) above
Sequence of JES6–1 immunocytokine mutant S34A (VL) (P04351 whole entry, looked up, stated change not applied): as the sequence (P04351 whole entry, looked up) above
Sequence of JES6–1 immunocytokine double mutant S34A+Y101A (VL) (P04351 whole entry, looked up, stated change not applied): as the sequence (P04351 whole entry, looked up) above
Sequence of JY3 immunocytokine (JES6–1 immunocytokine double mutant Y41A+Y101A, VL) (P04351 whole entry, looked up, stated change not applied): as the sequence (P04351 whole entry, looked up) above
Sequence of JES6–1 immunocytokine mutant E60A (VH) (P04351 whole entry, looked up, stated change not applied): as the sequence (P04351 whole entry, looked up) above
Sequence of JES6–1 immunocytokine mutant Y101A (VL) (P04351 whole entry, looked up, stated change not applied): as the sequence (P04351 whole entry, looked up) above
Sequence of JES6–1 immunocytokine mutant R62A (VH) (P04351 whole entry, looked up, stated change not applied): as the sequence (P04351 whole entry, looked up) above
Sequence of JES6–1 immunocytokine triple mutant S34A+Y41A+Y101A (VL) (P04351 whole entry, looked up, stated change not applied): as the sequence (P04351 whole entry, looked up) above
Sequence of JES6–1 immunocytokine mutant Y41A (VL) (P04351 whole entry, looked up, stated change not applied): as the sequence (P04351 whole entry, looked up) above
Sequence of JES6–1 immunocytokine mutant D58A (VH) (P04351 whole entry, looked up, stated change not applied): as the sequence (P04351 whole entry, looked up) above
Sequence of JES6–1 immunocytokine mutant D55A (VH) (P04351 whole entry, looked up, stated change not applied): as the sequence (P04351 whole entry, looked up) above
Sequence of IL-2 (P60568 21-153): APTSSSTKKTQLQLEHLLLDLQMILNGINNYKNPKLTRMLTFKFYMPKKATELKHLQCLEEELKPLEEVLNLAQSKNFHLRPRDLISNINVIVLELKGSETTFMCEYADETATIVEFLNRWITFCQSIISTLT

| Kd [nM] | Molecule |
| --- | --- |
| 82 | JES6–1 immunocytokine double mutant S34A+Y101A (VL) (from UniProt P04351 21-169) |
| 210 | JES6–1 immunocytokine double mutant S34A+Y41A (VL) (from UniProt P04351 21-169) |
| 82 | JY3 immunocytokine (JES6–1 immunocytokine double mutant Y41A+Y101A, VL) (from UniProt P04351 21-169) |
| 130 | JES6–1 immunocytokine triple mutant S34A+Y41A+Y101A (VL) (from UniProt P04351 21-169) |
| 220 | JES6–1 immunocytokine (IL-2 tethered to the N-terminus of the JES6–1 antibody light chain) (from UniProt P04351 21-169) |

molecular target: mouse IL-2 (mIL-2, amino acids 1–149), hexahistidine-tagged (Mus musculus, UniProt P04351); assay: SPR; conditions: not given
Sequence (P04351 21-169): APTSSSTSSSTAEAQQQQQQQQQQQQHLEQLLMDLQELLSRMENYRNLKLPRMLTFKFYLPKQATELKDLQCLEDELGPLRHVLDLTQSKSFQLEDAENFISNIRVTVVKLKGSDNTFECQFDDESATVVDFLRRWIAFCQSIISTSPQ

| Molecule | Kd [nM] |
| --- | --- |
| biotinylated JES6–1 antibody mutant S34A (VL) (antibody, V domains shown) VH: EIQLQQSGPELRRPGSSVKLSCKASGYNITDYLIHWVRHRPEHGLEWIGWIDPEDGETRYAQKFQSKATLTADTSSNAAYMQLSSLTPEDTATYFCARSLDSTYIYPFAYWGQGTLVTVSS VL: DIVMTQSPFSLAVSEGEMVTINCKSSQSLLASGNQKNYLAWYQQKPGQSPKLLIYYASTGQSGVPDRFIGSGSGTDFTLTISDVQAEDLADYYCLQHYISPPTFGAGTKLELK | 6.5 |
| biotinylated JES6–1 antibody mutant D58A (VH) (antibody, V domains shown) VH: EIQLQQSGPELRRPGSSVKLSCKASGYNITDYLIHWVRHRPEHGLEWIGWIDPEAGETRYAQKFQSKATLTADTSSNAAYMQLSSLTPEDTATYFCARSLDSTYIYPFAYWGQGTLVTVSS VL: DIVMTQSPFSLAVSEGEMVTINCKSSQSLLSSGNQKNYLAWYQQKPGQSPKLLIYYASTGQSGVPDRFIGSGSGTDFTLTISDVQAEDLADYYCLQHYISPPTFGAGTKLELK | 200 |
| biotinylated JES6–1 antibody mutant R62A (VH) (antibody, V domains shown) VH: EIQLQQSGPELRRPGSSVKLSCKASGYNITDYLIHWVRHRPEHGLEWIGWIDPEDGETAYAQKFQSKATLTADTSSNAAYMQLSSLTPEDTATYFCARSLDSTYIYPFAYWGQGTLVTVSS VL: DIVMTQSPFSLAVSEGEMVTINCKSSQSLLSSGNQKNYLAWYQQKPGQSPKLLIYYASTGQSGVPDRFIGSGSGTDFTLTISDVQAEDLADYYCLQHYISPPTFGAGTKLELK | 4.3 |
| biotinylated JES6–1 antibody mutant Y101A (VL) (antibody, V domains shown) VH: EIQLQQSGPELRRPGSSVKLSCKASGYNITDYLIHWVRHRPEHGLEWIGWIDPEDGETRYAQKFQSKATLTADTSSNAAYMQLSSLTPEDTATYFCARSLDSTYIYPFAYWGQGTLVTVSS VL: DIVMTQSPFSLAVSEGEMVTINCKSSQSLLSSGNQKNYLAWYQQKPGQSPKLLIYYASTGQSGVPDRFIGSGSGTDFTLTISDVQAEDLADYYCLQHAISPPTFGAGTKLELK | 12 |
| biotinylated JES6–1 antibody mutant E60A (VH) (antibody, V domains shown) VH: EIQLQQSGPELRRPGSSVKLSCKASGYNITDYLIHWVRHRPEHGLEWIGWIDPEDGATRYAQKFQSKATLTADTSSNAAYMQLSSLTPEDTATYFCARSLDSTYIYPFAYWGQGTLVTVSS VL: DIVMTQSPFSLAVSEGEMVTINCKSSQSLLSSGNQKNYLAWYQQKPGQSPKLLIYYASTGQSGVPDRFIGSGSGTDFTLTISDVQAEDLADYYCLQHYISPPTFGAGTKLELK | 56 |
| biotinylated JES6–1 antibody mutant Y41A (VL) (antibody, V domains shown) VH: EIQLQQSGPELRRPGSSVKLSCKASGYNITDYLIHWVRHRPEHGLEWIGWIDPEDGETRYAQKFQSKATLTADTSSNAAYMQLSSLTPEDTATYFCARSLDSTYIYPFAYWGQGTLVTVSS VL: DIVMTQSPFSLAVSEGEMVTINCKSSQSLLSSGNQKNALAWYQQKPGQSPKLLIYYASTGQSGVPDRFIGSGSGTDFTLTISDVQAEDLADYYCLQHYISPPTFGAGTKLELK | 6.4 |

Second part, the molecule after the results:

| Kd [nM] | Molecule |
| --- | --- |
| 62 | biotinylated JES6–1 antibody mutant H100A (VL) (antibody, V domains shown) VH: EIQLQQSGPELRRPGSSVKLSCKASGYNITDYLIHWVRHRPEHGLEWIGWIDPEDGETRYAQKFQSKATLTADTSSNAAYMQLSSLTPEDTATYFCARSLDSTYIYPFAYWGQGTLVTVSS VL: DIVMTQSPFSLAVSEGEMVTINCKSSQSLLSSGNQKNYLAWYQQKPGQSPKLLIYYASTGQSGVPDRFIGSGSGTDFTLTISDVQAEDLADYYCLQAYISPPTFGAGTKLELK |
| 500 | biotinylated JES6–1 antibody mutant D55A (VH) (antibody, V domains shown) VH: EIQLQQSGPELRRPGSSVKLSCKASGYNITDYLIHWVRHRPEHGLEWIGWIAPEDGETRYAQKFQSKATLTADTSSNAAYMQLSSLTPEDTATYFCARSLDSTYIYPFAYWGQGTLVTVSS VL: DIVMTQSPFSLAVSEGEMVTINCKSSQSLLSSGNQKNYLAWYQQKPGQSPKLLIYYASTGQSGVPDRFIGSGSGTDFTLTISDVQAEDLADYYCLQHYISPPTFGAGTKLELK |

molecular target: biotinylated mouse IL-2Rα (mIL-2Rα ectodomain with C-terminal biotin acceptor peptide) (mouse); assay: SPR; conditions: not given; remark: another data set of the same source

| Molecule | Kd [nM] |
| --- | --- |
| JES6–1 immunocytokine mutant S34A (VL) (from UniProt P04351 21-169) | 170 |
| JES6–1 immunocytokine mutant R62A (VH) (from UniProt P04351 21-169) | 190 |
| JES6–1 immunocytokine mutant Y101A (VL) (from UniProt P04351 21-169) | 140 |
| JES6–1 immunocytokine mutant D58A (VH) (from UniProt P04351 21-169) | 260 |
| JES6–1 immunocytokine (IL-2 tethered to the N-terminus of the JES6–1 antibody light chain) (from UniProt P04351 21-169) | 290 |

Second part, the molecule after the results:

| Kd [nM] | Molecule |
| --- | --- |
| 230 | JES6–1 immunocytokine mutant D55A (VH) (from UniProt P04351 21-169) |
| 240 | JES6–1 immunocytokine mutant H100A (VL) (from UniProt P04351 21-169) |
| 210 | JES6–1 immunocytokine mutant E60A (VH) (from UniProt P04351 21-169) |
| 130 | JES6–1 immunocytokine mutant Y41A (VL) (from UniProt P04351 21-169) |

molecular target: IL-2 receptor βγ (Homo sapiens) (UniProt P14784); assay: not given; conditions: cited from earlier work
Sequence (P14784 27-240, chain 1 of 2): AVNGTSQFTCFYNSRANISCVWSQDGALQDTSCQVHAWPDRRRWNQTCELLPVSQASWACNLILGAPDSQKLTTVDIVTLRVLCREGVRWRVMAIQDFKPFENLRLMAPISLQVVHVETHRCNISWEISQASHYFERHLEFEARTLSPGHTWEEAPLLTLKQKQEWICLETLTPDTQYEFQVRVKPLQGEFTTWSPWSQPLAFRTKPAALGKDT
Sequence (P31785 23-262, chain 2 of 2, further chain): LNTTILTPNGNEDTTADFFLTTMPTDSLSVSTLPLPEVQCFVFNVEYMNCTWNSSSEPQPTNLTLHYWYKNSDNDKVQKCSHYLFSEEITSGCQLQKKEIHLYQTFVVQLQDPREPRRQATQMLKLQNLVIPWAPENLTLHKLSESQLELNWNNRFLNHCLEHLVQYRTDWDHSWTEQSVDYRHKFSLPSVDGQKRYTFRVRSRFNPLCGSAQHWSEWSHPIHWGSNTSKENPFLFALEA

| Molecule | Kd [nM] |
| --- | --- |
| IL-2 (from UniProt P60568) | 1 |
